{"source": "paper PMC3877283", "about": "“Development of Novel Radiogallium-Labeled Bone Imaging Agents Using Oligo-Aspartic Acid Peptides as Carriers” (PLoS ONE, 2013)", "assay": "Biodistribution experiments in normal mice", "assay_type": "in vivo, ddY mice", "conditions": "for F/B ratio (Femur:blood ratio) / tissue uptake dose at 1 h / tissue uptake dose at 3 h / tissue uptake dose at 10 min: male ddY mice, no pretreatment, mean (SD) for four or five animals; for tissue uptake dose at 1 h / tissue uptake dose at 3 h / tissue uptake dose at 10 min: mouse, in vivo, iv, 37 kBq/100 uL, total radioactivity", "protocol": "Experiments with animals were conducted in strict accordance with the Guidelines for the Care and Use of Laboratory Animals of Kanazawa University. The animal experimental protocols used were approved by the Committee on Animal Experimentation of Kanazawa University (Permit Number: AP-132633). Biodistribution experiments were performed after an intravenous administration of each diluted tracer solution (37 kBq/100 µL) to 6-week-old male ddY mice (27–32 g, Japan SLC, Inc., Hamamatsu, Japan). To investigate the effect of an excess amount of bisphosphonate on biodistribution, alendronate (20 mg/kg) was intravenously administered to mice 1 minute before the intravenous injection of ^67Ga-DOTA-(Asp)14 or ^67Ga-DOTA-Bn-SCN-HBP. Four to six mice each were sacrificed by decapitation at 10, 60, and 180 minutes post-injection. Tissues of interest were removed and weighed. Complete left femurs were isolated as representative bone samples, radioactivity was determined using an auto well gamma counter, and counts were corrected for background radiation and physical decay during counting.", "note": "Where two headings read alike, the source gives them in different places. Peptide text beside a SMILES is read from it. * marks the point of attachment. DOTA = O=C(O)CN1CCN(CC(=O)O)CCN(CC(=O)*)CCN(CC(=O)O)CC1", "data": [{"smiles": "O=C(O)C[C@H](NC(=O)[C@H](CC(=O)O)NC(=O)[C@H](CC(=O)O)NC(=O)[C@H](CC(=O)O)NC(=O)[C@H](CC(=O)O)NC(=O)[C@H](CC(=O)O)NC(=O)[C@H](CC(=O)O)NC(=O)[C@H](CC(=O)O)NC(=O)[C@H](CC(=O)O)NC(=O)[C@H](CC(=O)O)NC(=O)[C@H](CC(=O)O)NC(=O)CN1CCN(CC(=O)O)CCN(CC(=O)O)CCN(CC(=O)O)CC1)C(=O)O", "note": "[67Ga-DOTA-(Asp)11, metal not drawn] ({DOTA}-DDDDDDDDDDD-OH)", "values": [{"measurement": "F/B ratio (Femur:blood ratio)", "setting": "10 min after i.v. administration", "value": "8.71 (0.73)"}, {"measurement": "F/B ratio (Femur:blood ratio)", "setting": "60 min after i.v. administration", "value": "156.07 (45.00)"}, {"measurement": "F/B ratio (Femur:blood ratio)", "setting": "180 min after i.v. administration", "value": "501.32 (156.89)"}, {"measurement": "tissue uptake dose at 1 h", "setting": "male, ddY, Blood, 60 min after i.v. administration, read-out: Radioactivity in Blood", "value": 0.11, "unit": "%ID"}, {"measurement": "tissue uptake dose at 3 h", "setting": "male, ddY, Blood, 180 min after i.v. administration, read-out: Radioactivity in Blood", "value": 0.03, "unit": "%ID"}, {"measurement": "tissue uptake dose at 10 min", "setting": "male, ddY, Bone (complete left femur), 10 min after i.v. administration, read-out: Radioactivity in Bone (Femur)", "value": 13.1, "unit": "%ID"}, {"measurement": "tissue uptake dose at 1 h", "setting": "male, ddY, Bone (complete left femur), 60 min after i.v. administration, read-out: Radioactivity in Bone (Femur)", "value": 16.3, "unit": "%ID"}, {"measurement": "tissue uptake dose at 3 h", "setting": "male, ddY, Bone (complete left femur), 180 min after i.v. administration, read-out: Radioactivity in Bone (Femur)", "value": 13.9, "unit": "%ID"}, {"measurement": "tissue uptake dose at 10 min", "setting": "male, ddY, Brain, 10 min after i.v. administration, read-out: Radioactivity in Brain", "value": 0.05, "unit": "%ID"}, {"measurement": "tissue uptake dose at 1 h", "setting": "male, ddY, Brain, 60 min after i.v. administration, read-out: Radioactivity in Brain", "value": 0.02, "unit": "%ID"}, {"measurement": "tissue uptake dose at 3 h", "setting": "male, ddY, Brain, 180 min after i.v. administration, read-out: Radioactivity in Brain", "value": 0.01, "unit": "%ID"}, {"measurement": "tissue uptake dose at 10 min", "setting": "male, ddY, Heart, 10 min after i.v. administration, read-out: Radioactivity in Heart", "value": 0.55, "unit": "%ID"}, {"measurement": "tissue uptake dose at 1 h", "setting": "male, ddY, Heart, 60 min after i.v. administration, read-out: Radioactivity in Heart", "value": 0.08, "unit": "%ID"}, {"measurement": "tissue uptake dose at 3 h", "setting": "male, ddY, Heart, 180 min after i.v. administration, read-out: Radioactivity in Heart", "value": 0.02, "unit": "%ID"}, {"measurement": "tissue uptake dose at 10 min", "setting": "male, ddY, Kidney, 10 min after i.v. administration, read-out: Radioactivity in Kidney", "value": 16, "unit": "%ID"}, {"measurement": "tissue uptake dose at 1 h", "setting": "male, ddY, Kidney, 60 min after i.v. administration, read-out: Radioactivity in Kidney", "value": 1.76, "unit": "%ID"}, {"measurement": "tissue uptake dose at 3 h", "setting": "male, ddY, Kidney, 180 min after i.v. administration, read-out: Radioactivity in Kidney", "value": 0.8, "unit": "%ID"}, {"measurement": "tissue uptake dose at 10 min", "setting": "male, ddY, Large-intestine, 10 min after i.v. administration, read-out: Radioactivity in Large-intestine", "value": 0.27, "unit": "%ID"}, {"measurement": "tissue uptake dose at 1 h", "setting": "male, ddY, Large-intestine, 60 min after i.v. administration, read-out: Radioactivity in Large-intestine", "value": 0.06, "unit": "%ID"}, {"measurement": "tissue uptake dose at 3 h", "setting": "male, ddY, Large-intestine, 180 min after i.v. administration, read-out: Radioactivity in Large-intestine", "value": 0.13, "unit": "%ID"}, {"measurement": "tissue uptake dose at 10 min", "setting": "male, ddY, Liver, 10 min after i.v. administration, read-out: Radioactivity in Liver", "value": 0.44, "unit": "%ID"}, {"measurement": "tissue uptake dose at 1 h", "setting": "male, ddY, Liver, 60 min after i.v. administration, read-out: Radioactivity in Liver", "value": 0.07, "unit": "%ID"}, {"measurement": "tissue uptake dose at 3 h", "setting": "male, ddY, Liver, 180 min after i.v. administration, read-out: Radioactivity in Liver", "value": 0.05, "unit": "%ID"}, {"measurement": "tissue uptake dose at 10 min", "setting": "male, ddY, Lung, 10 min after i.v. administration, read-out: Radioactivity in Lung", "value": 1.11, "unit": "%ID"}, {"measurement": "tissue uptake dose at 1 h", "setting": "male, ddY, Lung, 60 min after i.v. administration, read-out: Radioactivity in Lung", "value": 0.12, "unit": "%ID"}, {"measurement": "tissue uptake dose at 3 h", "setting": "male, ddY, Lung, 180 min after i.v. administration, read-out: Radioactivity in Lung", "value": 0.04, "unit": "%ID"}, {"measurement": "tissue uptake dose at 10 min", "setting": "male, ddY, Muscle, 10 min after i.v. administration, read-out: Radioactivity in Muscle", "value": 0.48, "unit": "%ID"}, {"measurement": "tissue uptake dose at 1 h", "setting": "male, ddY, Muscle, 60 min after i.v. administration, read-out: Radioactivity in Muscle", "value": 0.13, "unit": "%ID"}, {"measurement": "tissue uptake dose at 3 h", "setting": "male, ddY, Muscle, 180 min after i.v. administration, read-out: Radioactivity in Muscle", "value": 0.08, "unit": "%ID"}, {"measurement": "tissue uptake dose at 10 min", "setting": "male, ddY, Pancreas, 10 min after i.v. administration, read-out: Radioactivity in Pancreas", "value": 0.62, "unit": "%ID"}, {"measurement": "tissue uptake dose at 1 h", "setting": "male, ddY, Pancreas, 60 min after i.v. administration, read-out: Radioactivity in Pancreas", "value": 0.07, "unit": "%ID"}, {"measurement": "tissue uptake dose at 3 h", "setting": "male, ddY, Pancreas, 180 min after i.v. administration, read-out: Radioactivity in Pancreas", "value": 0.05, "unit": "%ID"}, {"measurement": "tissue uptake dose at 10 min", "setting": "male, ddY, Small-intestine, 10 min after i.v. administration, read-out: Radioactivity in Small-intestine", "value": 0.41, "unit": "%ID"}, {"measurement": "tissue uptake dose at 1 h", "setting": "male, ddY, Small-intestine, 60 min after i.v. administration, read-out: Radioactivity in Small-intestine", "value": 0.27, "unit": "%ID"}, {"measurement": "tissue uptake dose at 3 h", "setting": "male, ddY, Small-intestine, 180 min after i.v. administration, read-out: Radioactivity in Small-intestine", "value": 0.05, "unit": "%ID"}, {"measurement": "tissue uptake dose at 10 min", "setting": "male, ddY, Spleen, 10 min after i.v. administration, read-out: Radioactivity in Spleen", "value": 0.31, "unit": "%ID"}, {"measurement": "tissue uptake dose at 1 h", "setting": "male, ddY, Spleen, 60 min after i.v. administration, read-out: Radioactivity in Spleen", "value": 0.09, "unit": "%ID"}, {"measurement": "tissue uptake dose at 3 h", "setting": "male, ddY, Spleen, 180 min after i.v. administration, read-out: Radioactivity in Spleen", "value": 0.04, "unit": "%ID"}, {"measurement": "tissue uptake dose at 10 min", "setting": "male, ddY, Stomach (footnote b), 10 min after i.v. administration, read-out: Radioactivity in Stomach", "value": 0.21, "unit": "%ID"}, {"measurement": "tissue uptake dose at 1 h", "setting": "male, ddY, Stomach (footnote b), 60 min after i.v. administration, read-out: Radioactivity in Stomach", "value": 0.18, "unit": "%ID"}, {"measurement": "tissue uptake dose at 3 h", "setting": "male, ddY, Stomach (footnote b), 180 min after i.v. administration, read-out: Radioactivity in Stomach", "value": 0.04, "unit": "%ID"}, {"measurement": "tissue uptake dose at 10 min", "setting": "Blood, 10 min after i.v. administration (37 kBq/100 µL), gamma counter, read-out: Radioactivity in Blood", "value": 1.51, "unit": "%ID"}, {"measurement": "accumulation of radioactivity in the femur (in words)", "setting": "normal mice, i.v.", "value": "higher accumulation"}]}]}
